Assay results from patent publication US20260274944A1 (VECT HORUS, published 2026).

What was measured:
[1] = target: T1, mouse RAGE (mRAGE) fused to EGFP, expressed on CHO cells (mouse, UniProt Q62151 23-402); test: flow cytometry on CHO-mRAGE-EGFP cells, 4 °C, anti-6His detection
T1 construct: whole, on cells; also called CHO-mRAGE-EGFP; murine RAGE; not shown: EGFP from the pEGFP-N1 vector (Clontech), fused at the C-terminal (intracellular) end

[2] = target: T2, human RAGE (hRAGE) fused to EGFP, stably expressed on CHO cells (human, UniProt Q15109 23-404); test: apparent Kd (Kd app), flow cytometry on CHO-hRAGE-EGFP cells
T2 construct: whole, on cells; also called CHO-hRAGE-EGFP; human receptor; not shown: EGFP from the pEGFP-N1 vector (Clontech), fused at the C-terminal (intracellular) end
Protocol: FIG. 3. Apparent Kd determination of VHHs on hRAGE- and mRAGE-expressing CHO cell lines. (A) CHO-hRAGE-EGFP and CHO-mRAGE-EGFP cells were incubated 1 hr at 4° C. with increasing concentrations of VHHs, detected with a mouse anti-6His (1/1000) and an Alexa647-conjugated anti-mouse secondary antibody (1/400). Measurements were performed using flow cytometry. The ratio of fluorescence intensity for each point was normalized with the corresponding EGFP signal (receptor expression) and gave rise to the arbitrary units. Data are presented as mean±SEM of at least 3 independent experiments. (B) Characteristics of selected VHHs: Molecular Weight (Da); Apparent Kd on human RAGE (nM); Apparent Kd on mouse RAGE (nM). Data are presented as mean±SEM of at least 3 independent experiments.
The binding properties of VHHs with affinity for RAGE were tested using flow cytometry, and apparent affinities (K_{d app}) were determined. […] Fluorescence levels were assessed using an Attune N×T flow cytometer (Thermo Fisher Scientific).
Three VHHs (VHH 1, 2 and 5) out of 5 bound both the human and the mouse RAGE and induced a concentration-dependent shift of the signal (FIG. 3-A). […] Moreover, no labelling of the CHO WT control cells was detected with all the tested VHHs (not shown). The VHH K_{d app} were calculated using GraphPad Prism software.

[3] = target: T3, HA-mRAGE (mouse, UniProt Q62151 23-402); test: immunocytochemistry, 250 nM on transfected CHO cells, anti-human Fc detection
T3 construct: mature; Transiently expressed on CHO cells; also called full-length mRAGE with N-terminal HA tag; not shown: HA tag at the N-terminus; EGFP fused at the C-terminal end (pEGFP-N1)
Excerpt: To determine the binding domain of VHH-RAGE-Fc, inventors suppressed RAGE domains sequentially, expressed the resulting truncated constructs mRAGE-ΔV, mRAGE-ΔV-C1 (FIG. 9-A) and compared VHHRAGE-Fc binding on the full-length construct (mRAGE and HA-mRAGE) in transfected CHO cells. An HA tag was introduced in the N-ter of each receptor to validate appropriate presentation of the extracellular domain using anti-HA, non-permeabilizing immunocytochemistry. EGFP was fused at the C-terminal end to enable easy visualization of the truncated and full-length receptor by fluorescence microscopy. […] The synthetised DNA fragments were cloned into a pEGFP-N1 plasmid after restriction using XhoI EcoRI and ligation. CHO WT cells were transfected using jetPEI™ with the different plasmid constructs according to the manufacturer's instructions.
For immunocytochemistry, living transfected cells were incubated with 250 nM VHH-RAGE-hFc or anti-HA antibody for 1 hr at 37° C. Cells were then fixed using PBS-PFA 4%.

[4] = target: T1, mouse RAGE (mRAGE) fused to EGFP, …; test: immunocytochemistry, 50 nM on living CHO-mRAGE-EGFP cells, anti-hFc detection
Protocol: (§1) Immunocytochemistry experiments on CHO cell lines expressing the mouse or human RAGE fused to EGFP were performed to confirm the ability of fusion proteins to bind the RAGE. For these experiments, VHH-Fc fusion proteins were incubated at 50 nM on living cells, detected using an Alexa594-conjugated anti-hFc antibody after cells fixation with PBS-PFA 4% and permeabilization of the cell membrane with PBS-0.1% Triton X100 and photographed with a confocal microscope.

[5] = target: T1, mouse RAGE (mRAGE) fused to EGFP, …; test: apparent Kd (Kd app), flow cytometry on CHO-mRAGE-EGFP cells
Protocol: The binding properties of VHHs with affinity for RAGE were tested using flow cytometry, and apparent affinities (K_{d app}) were determined. All experiments were performed in 96 well plates using 2×10⁵ cells/well, at 4° C. with shaking. CHO cell lines expressing RAGE fused to EGFP or CHO WT cells were saturated with PBS/BSA 2% solution during 30 min to avoid nonspecific binding, followed by incubation with purified VHHs at concentrations ranging from 50 μM to 0.5 nM for 1 hr. After one wash in PBS/BSA 2%, cells were incubated for 1 hr with an anti-6His tag antibody (mouse), washed twice with PBS/BSA 2%, and incubated for 1 hr with an Alexa647-conjugated anti-mouse secondary antibody. After two last washes in PBS/BSA 2%, cells were fixed by incubation for 15 min with PBS/PFA 2%, washed once with PBS and finally resuspended in PBS. Fluorescence levels were assessed using an Attune N×T flow cytometer (Thermo Fisher Scientific).
The binding properties of VHH-siRNA conjugates with affinity for RAGE were tested using flow cytometry, and apparent affinities (K_{d app}) were determined. The same protocol as the one described in example IV was used.
All VHH-siRNAs bound the mRAGE and induced a concentration-dependent shift of the signal (FIG. 4-A), confirming that the VHH conjugated to both the siTTRm and the siSOD1m retained the binding to the receptor of interest. The VHH-siRNA K_{d app} were calculated using GraphPad Prism software.

[6] = target: T1, mouse RAGE (mRAGE) fused to EGFP, …; test: flow cytometry competition on CHO-mRAGE-EGFP cells; competitor against tracer VHH 1-Fc
Protocol: FIG. 8. Competition assay between VHHs and VHH 1-Fc. (A) Principle of the competition test. In a first step, CHO-mRAGE-EGFP cells were incubated 1 hr at 4° C. with the competitor in dilution series. Second, the tracer at EC80-90 was added and incubated for 1 hr at 4° C. […] Measurements were performed using flow cytometry. (B) CHO-mRAGE-EGFP cells were incubated with the competitors (VHHs). Tracer (VHH 1-Fc) at EC80 was then added and detected with Alexa647-conjugated anti-hFc antibody (1/400).

[7] = target: T2, human RAGE (hRAGE) fused to EGFP, …; test: flow cytometry on CHO-hRAGE-EGFP cells, 4 °C, anti-6His detection
[8] = target: T4, RAGE in mice lungs (endogenous mouse RAGE at the alveolar epithelium) (mouse, UniProt Q62151 23-402); test: double immunofluorescence on lung sections of mice injected at 35 nmol/kg, 48 hours post injection
T4 construct: whole, on cells; also called RAGE in the lung
Protocol: FIG. 10. Cellular binding/co-localization of VHH-Fc on RAGE in mice lungs. Immunocytochemistry was performed on the lungs of mice injected with VHH ctrl-Fc, VHH 1-Fc and VHH 5-Fc into tail vein at 35 nmol/kg. The mice were perfused with saline 48 hours post injection and the lungs were incubated in PFA 4% overnight. Lungs were extensively washed in PBS 1× and incubated 2 days in sucrose 30%. Double-immunofluorescent staining of lung tissue with anti-RAGE (Alexa Fluor 488, green) and with VHH-Fc (Alexa Fluor 594, red) antibodies were performed on lung sections. Cell nuclei were labeled with Hoechst #33342 at 0.5 μg/ml (blue). Co-labeling appears in yellow/orange in the merged pictures (right panel). Representative photographs were taken with a confocal microscope with 20× and 63× magnification.
To confirm the ability of fusion proteins to bind RAGE in vivo, immunocytochemistry experiments were performed on lungs of mice injected into the tail vein at 35 nmol/kg with VHH ctrl-Fc, VHH 1-Fc and VHH 5-Fc. Mice were perfused with saline 48 hours post injection and lungs were incubated in PFA 4% overnight. Lungs were extensively washed in PBS 1× and incubated 2 days in sucrose 30% before being snap frozen. The fixed lung was embedded in OCT and cut in 14 μm thick sections. […] Cell nuclei were labeled with Hoechst #33342. […]

[9] = target: T2, human RAGE (hRAGE) fused to EGFP, …; test: immunocytochemistry, 50 nM on living CHO-hRAGE-EGFP cells, anti-hFc detection
Protocol: as §1

T3 sequence (Q62151 23-402): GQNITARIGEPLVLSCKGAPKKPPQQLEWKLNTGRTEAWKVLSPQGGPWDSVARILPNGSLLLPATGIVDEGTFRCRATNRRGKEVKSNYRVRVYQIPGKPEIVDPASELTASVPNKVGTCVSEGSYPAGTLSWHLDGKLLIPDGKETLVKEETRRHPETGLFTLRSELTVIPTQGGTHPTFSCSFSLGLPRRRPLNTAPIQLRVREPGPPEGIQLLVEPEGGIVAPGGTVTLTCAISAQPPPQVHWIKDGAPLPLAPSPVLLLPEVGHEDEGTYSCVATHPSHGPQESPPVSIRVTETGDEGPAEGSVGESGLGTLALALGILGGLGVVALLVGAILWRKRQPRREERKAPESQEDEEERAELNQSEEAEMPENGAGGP
T1 sequence (Q62151 23-402): as above
T2 sequence (Q15109 23-404): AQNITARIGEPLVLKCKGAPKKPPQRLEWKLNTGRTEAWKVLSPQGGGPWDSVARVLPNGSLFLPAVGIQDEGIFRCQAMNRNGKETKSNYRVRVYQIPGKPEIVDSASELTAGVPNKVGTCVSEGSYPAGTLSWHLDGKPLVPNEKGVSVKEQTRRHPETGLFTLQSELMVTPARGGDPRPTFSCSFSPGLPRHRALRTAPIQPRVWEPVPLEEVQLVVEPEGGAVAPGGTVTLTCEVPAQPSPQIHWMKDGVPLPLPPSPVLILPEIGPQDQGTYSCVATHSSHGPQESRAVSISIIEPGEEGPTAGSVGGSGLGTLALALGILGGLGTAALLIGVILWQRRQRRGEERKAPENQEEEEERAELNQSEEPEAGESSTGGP
T4 sequence (Q62151 23-402): as the sequence (Q62151 23-402) above

Binder | binding result [3] | binding result [4] | Kd [5] [nM] | further results
VHH 2 (VHH, also called sdAb VHH 2) VHH: QVQLVQSGGGLVQAGGSLRLSCAASGSVSSIYAMGWYRQAPGKQREWVTTITGRGITDYAASVKGRFTISRDTAKNAVYLQMNNLKPEDTARYYCKIDRRGYAPYWGQGTQVTVSS | – | – | – | binding result [1]: binds; Kd [2]: 350 nM
VHH 2-Fc (Fc fusion, VHH with no tag fused to a human IgG1 Fc; also called VHHRAGE-Fc fusion; VHH-RAGE-Fc; not shown: human IgG1-Fc fragment encoded by the pINFUSE-IgG1-Fc2 vector (InvivoGen)) QVQLVQSGGGLVQAGGSLRLSCAASGSVSSIYAMGWYRQAPGKQREWVTTITGRGITDYAASVKGRFTISRDTAKNAVYLQMNNLKPEDTARYYCKIDRRGYAPYWGQGTQVTVSS | binds | binds | – | –
VHH 5 (VHH, also called sdAb VHH 5) VHH: EVQLVESGGGLVQPGGSLRLSCAASGTIFSLNPMGWYRQAPGKQLELVALISDSGTANYADFVRGRFTISRDTTKKTLYLQMNSLEPEDTAVYYCRSTFAAGNFYWGQGTQVTVSS | – | – | 1490 | Kd [2]: 204 nM
VHH 3-Fc (Fc fusion, VHH with no tag fused to a human IgG1 Fc; also called VHHRAGE-Fc fusion; VHH-RAGE-Fc; not shown: human IgG1-Fc fragment encoded by the pINFUSE-IgG1-Fc2 vector (InvivoGen)) QVQLVQSGGGLVQAGGSLRLSCVASGRTFSNYAMAWFRQAPGEEREFVARISWSGGRTSYADSVKGRFTISRDNAKNTVYLQMISLKPEDTAVYYCATEAGAFGGVYSSTGSYDYWGQGTQVTVSS | binds | binds | – | –
VHH 4 (VHH, also called sdAb VHH 4) VHH: EVQLVESGGGLVQAGGSLRLSCVASGRTFSNYAMAWFRQAPGEEREFVARISWRGGRTSYADSVKGRFTISRDNAKNTVYLQMISLKPEDTAVYYCASEGGAFGGVYSATGSYDYWGQGTQVTVSS | – | – | 32 | –
VHH 3 (VHH, also called sdAb VHH 3) VHH: QVQLVQSGGGLVQAGGSLRLSCVASGRTFSNYAMAWFRQAPGEEREFVARISWSGGRTSYADSVKGRFTISRDNAKNTVYLQMISLKPEDTAVYYCATEAGAFGGVYSSTGSYDYWGQGTQVTVSS | – | – | – | binding result [6]: binds
VHH 4-siSOD1m (other, siRNA siSOD1m linked through an azido linker put by bacterial transglutaminase on the glutamine residue of the myc tag, then copper-free click chemistry, VHH-siRNA conjugate) VHH: EVQLVESGGGLVQAGGSLRLSCVASGRTFSNYAMAWFRQAPGEEREFVARISWRGGRTSYADSVKGRFTISRDNAKNTVYLQMISLKPEDTAVYYCASEGGAFGGVYSATGSYDYWGQGTQVTVSSAAAEQKLISEEDLNGAAHHHHHHGS | – | – | 6.8 | –
VHH 1 (VHH, also called sdAb VHH 1) VHH: QVQLVQSGGGLVQPGGSLRLSCAVSGSIFSSATMGWYRQAPGKQRELAARISSGGSTNYLDSVKGRFTISRDNAKNTVYLQMNSLKLEDTAVYYCRLQANFGLVDYWGKGTQVTVSS | – | – | – | binding result [7]: binds; binding result [1]: binds
VHH 1-Fc (Fc fusion, VHH with no tag fused to a human IgG1 Fc; also called VHHRAGE-Fc fusion; VHH-RAGE-Fc; not shown: human IgG1-Fc fragment encoded by the pINFUSE-IgG1-Fc2 vector (InvivoGen)) QVQLVQSGGGLVQPGGSLRLSCAVSGSIFSSATMGWYRQAPGKQRELAARISSGGSTNYLDSVKGRFTISRDNAKNTVYLQMNSLKLEDTAVYYCRLQANFGLVDYWGKGTQVTVSS | binds | binds | – | binding result [8]: binds; binding result [9]: binds
VHH 2-siSOD1m (other, siRNA siSOD1m linked through an azido linker put by bacterial transglutaminase on the glutamine residue of the myc tag, then copper-free click chemistry, VHH-siRNA conjugate) VHH: QVQLVQSGGGLVQAGGSLRLSCAASGSVSSIYAMGWYRQAPGKQREWVTTITGRGITDYAASVKGRFTISRDTAKNAVYLQMNNLKPEDTARYYCKIDRRGYAPYWGQGTQVTVSSAAAEQKLISEEDLNGAAHHHHHHGS | – | – | 238 | –
